Measurements as given in patent US20200079850A1 (SUTRO BIOPHARMA, published 2020).
Where a chain is given by its changes, count along the chain named.

T1: human LAG3 expressed on the cell surface (CHO-LAG3, 293T-LAG3 cells) (human, UniProt P18627 23-525)
T1 construct: Stably transfected CHO or HEK293T cells; also called Human LAG3 (CHO); Human LAG3 (293T)
T1 sequence: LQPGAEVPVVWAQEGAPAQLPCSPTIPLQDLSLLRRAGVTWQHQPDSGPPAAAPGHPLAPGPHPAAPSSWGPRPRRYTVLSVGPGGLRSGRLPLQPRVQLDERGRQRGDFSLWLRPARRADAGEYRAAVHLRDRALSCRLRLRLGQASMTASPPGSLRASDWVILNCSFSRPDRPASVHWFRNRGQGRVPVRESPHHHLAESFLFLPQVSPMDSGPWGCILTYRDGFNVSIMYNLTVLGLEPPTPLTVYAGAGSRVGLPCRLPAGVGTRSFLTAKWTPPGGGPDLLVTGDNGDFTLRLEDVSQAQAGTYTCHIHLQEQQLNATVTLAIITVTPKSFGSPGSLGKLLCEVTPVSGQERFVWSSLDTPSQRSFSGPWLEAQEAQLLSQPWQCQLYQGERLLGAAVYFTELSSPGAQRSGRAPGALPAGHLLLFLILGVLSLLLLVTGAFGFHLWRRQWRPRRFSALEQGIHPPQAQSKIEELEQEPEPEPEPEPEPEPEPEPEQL

T2: recombinant human LAG3 protein (rhLAG3), HIS-tagged (ACRO) or biotinylated (R&D Cat #2319-C3) (human, UniProt P18627 23-450, biotinylated in part of the assays)
T2 sequence: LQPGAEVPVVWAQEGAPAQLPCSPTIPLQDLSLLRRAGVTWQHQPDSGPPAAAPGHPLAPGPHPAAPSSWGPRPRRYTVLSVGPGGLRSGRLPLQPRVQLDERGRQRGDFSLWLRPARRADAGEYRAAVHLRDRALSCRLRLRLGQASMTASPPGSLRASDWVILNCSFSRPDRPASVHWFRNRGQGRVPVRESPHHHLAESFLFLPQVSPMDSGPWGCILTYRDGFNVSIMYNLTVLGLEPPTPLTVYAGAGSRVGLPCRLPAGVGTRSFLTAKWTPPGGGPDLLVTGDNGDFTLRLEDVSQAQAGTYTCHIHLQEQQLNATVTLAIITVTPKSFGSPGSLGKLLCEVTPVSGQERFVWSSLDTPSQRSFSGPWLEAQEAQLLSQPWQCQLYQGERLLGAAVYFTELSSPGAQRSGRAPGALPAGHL

T3: human LAG3-Fc (R&D Systems #2319-L3) (human, UniProt P18627 23-450)
T3 construct: Bought protein; also called Human LAG3 (Biacore)
T3 sequence: T2 sequence

B1: SRP1496-B08 (antibody, V domains shown)
VH: EVQLVESGGGLVQPGGSLRLSCAASGFNINDTYIHWVRQAPGKGLEWVGIIDPYDGATDYADSVKGRFTISADTSKNTAYLQMNSLRAEDTAVYYCAREIFGFYWNPFDYWGQGTLVTVSS
VL: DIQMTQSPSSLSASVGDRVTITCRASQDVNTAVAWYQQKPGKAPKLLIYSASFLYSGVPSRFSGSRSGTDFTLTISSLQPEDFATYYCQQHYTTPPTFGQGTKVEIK
B2: SRP1496-A04 (antibody, V domains shown)
VH: B1 VH
VL: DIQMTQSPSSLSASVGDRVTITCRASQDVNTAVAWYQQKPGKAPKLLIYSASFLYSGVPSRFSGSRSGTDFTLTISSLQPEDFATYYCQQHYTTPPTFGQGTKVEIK
B3: SRP1496-A03 (antibody, V domains shown)
VH: B1 VH
VL: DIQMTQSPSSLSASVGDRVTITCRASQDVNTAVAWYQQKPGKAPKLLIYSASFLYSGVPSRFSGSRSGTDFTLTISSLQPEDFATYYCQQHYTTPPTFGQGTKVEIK
B4: SRP1627-A11 (scFv, V domains shown)
VH: QVQLVQSGAEVKKPGSSVKVSCKASGFNINDYFMHWVRQAPGQGLEWIARIDPWNGDTEYAPKFQGRVTITADESTSTAYMELSSLRSEDTAVYYCGMSDALDYWGQGTLVTVSS
VL: DVVMTQSPLSLPVTLGQPASISCKSSQSLLDSDGKTYLNWFQQRPGQSPRRLIYLVSKLDSGVPDRFSGSGSGTDFTLKISRVEAEDVGVYYCWHGINFPQTFGQGTKVEIK
B5: SRP1627-B01 (scFv, V domains shown)
VH: B4 VH with N30T, Y32L, F33Y, V68A, G97I, M98A, D100E, A101M, L102V
VL: B4 VL with W94S, H95T, G96Y, I97S, N98H
B6: SRP1627-A02 (scFv, V domains shown)
VH: B4 VH
VL: B4 VL with W94S, I97N, N98P, F99V
B7: h5G11-2 (scFv, V domains shown)
VH: B4 VH with N30K, F33Y, R50W, W54E, G97N, M98A, S99P
VL: B4 VL with H95Q, I97S, N98H
B8: SRP1648-B07 (antibody, V domains shown)
VH: B1 VH with N30A, Y33F, A57D, F101L
VL: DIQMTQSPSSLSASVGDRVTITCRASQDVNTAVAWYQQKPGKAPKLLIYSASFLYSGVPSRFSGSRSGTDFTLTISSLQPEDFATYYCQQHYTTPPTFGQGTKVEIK
notes: IgG scaffold with human constant domains
B9: SRP1648-E02 (antibody, V domains shown)
VH: B1 VH with T32N, A57F, D59A, I100S, F101I, W105L
VL: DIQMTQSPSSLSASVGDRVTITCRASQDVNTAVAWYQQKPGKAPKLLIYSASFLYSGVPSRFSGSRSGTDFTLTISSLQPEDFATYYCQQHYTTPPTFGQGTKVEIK

The binders below were run against T1, human LAG3 expressed on the cell … (assay: flow cytometry, 293T cells expressing human LAG3).
Protocol: LAG3 antibody variants were tested in a fluorescence-activated cell sorting (FACS) cell-binding assay. Chinese Hamster Ovary (CHO) cells or HEK293T cells stably expressing the human target molecule LAG3 on the cell surface (CHO-LAG3, 293T-LAG3) were used to screen for cell binders by flow cytometry. Parental CHO or 293T cells were used as a negative control to determine background-binding levels. Cells were cultured in RPMI with 10% FCS Penicillin/Streptomycin (or Pen/Strep) and glutamine (or Gln) and split every 3-4 days at 10⁵ cells/ml.
A mix of parental CHO cells and CHO-LAG3 cells (or 293T and 293T-LAG3 cells) was prepared as follows: Parental CHO cells were washed 2× in PBS then incubated in PBS containing 1 nM CellTrace™ Oregon Green488® (Life Technologies) at 37° C. for 30 minutes. […] Parental CHO cells and CHO-LAG3 cells were then mixed to obtain a 1:1 cell suspension and seeded at 100 μl per well on 96 well polypropylene plates. Plates were spun at 1500 rpm for 5 minutes and cell pellets were suspended in 50 μl FACS buffer containing 6-12 point dilutions of anti-LAG3 variants starting from concentrations of ˜100-200 nM antibody, dispensed using BioMekFX (Beckman Coulter). Cells were then incubated on ice for 1 hr, washed with FACS buffer and incubated for 1 hr on ice with 50 μl FACS buffer containing 2.5 μg/ml R-Phycoerythrin-conjugated Goat Anti-Human IgG (Jackson ImmunoResearch) or AF647-conjugated Goat Anti-mouse IgG (Life Technologies) dispensed using BioMekFX (Beckman Coulter). Cells were then washed 2× with FACS buffer and fixed for 10 minutes in 200 μl PBS with 2% PFA prior to fluorescence detection. Samples were acquired using a Beckton Dickinson LSRII FACS. Mean Fluorescence Intensity of LAG3 antibody binding was analyzed using Tree Star, Inc. FlowJo® software.

Row | Kd [nM] | Binder
1 | 39.4 | B1
2 | 35 | B2
3 | 40.6 | B3
4 | 0.74 | B4
5 | 0.19 | B5
6 | 0.97 | B6
7 | 78 | B7

These binders were tested against T2, recombinant human LAG3 protein … (assay: flow cytometry competition, rhLAG3 binding to Daudi cells; competitor MHCII).
Protocol: DAUDI cells express high levels of Major Histocompatibility Class II (MHCII) molecules, a natural ligand for LAG3, on the cell surface. DAUDI cells were used to screen for antibodies that inhibit binding of HIS-tagged (ACRO) or biotinylated recombinant human LAG3 protein (rhLAG3) to MHCII expressed on the cell surface.
DAUDI cells were cultured in RPMI w/10% FCS Pen/Strep and Gln and split every 3-4 days at 10^5 cells/ml. Cells were washed 2× with FACS buffer (PBS w/2% FCS), […] at a final concentration of 1×10⁶ cells/ml and seeded at 100 μl per well on 96 well polypropylene plates. Plates were spun at 1500 rpm for 5 minutes and cell pellets were suspended in 50 μl FACS buffer containing 8 point 1:3 dilutions (2× concentrated) of anti-LAG3 antibody variants, starting from high concentration of −600 nM. 50 μl FACS buffer containing 10-20 μg/ml of the HIS-tagged rhLAG3 protein or 40 μg/ml of the biotinylated rhLAG3 protein were then added to the cells. Cell were then incubated in ice for 1 hr, washed with FACS buffer and incubated for 1 hr in ice with 50 μl FACS buffer containing 2 μg/ml R-Phycoerythrin-conjugated Streptavidin (eBiosciences) or 1 μg/ml R-Phycoerythrin-conjugated anti-HIS IgG (Abcam). Cell were washed 2× with FACS buffer and fixed for 10 minutes in 200 μl PBS w/2% PFA prior to acquisition.

Row | IC50 [nM] | Binder
8 | 28.6 | B1
9 | 55.8 | B2
10 | 41.3 | B3
11 | 4.5 | B8
12 | 4.1 | B9
13 | 1.6 | B4
14 | 0.4 | B5
15 | 1.7 | B6

The binders below were run against T3, human LAG3-Fc (R&D Systems #2319-L3) (assay: SPR (Biacore), antibody captured by anti-Flag, LAG3-Fc as analyte, 25 C).
Protocol: Anti-Flag M2 IgG (Sigma-Aldrich # F9291) was immobilized onto a CMS chip (GE Life Sciences) using amine coupling chemistry (from Amine Coupling Kit, GE Life Sciences). The immobilization steps were carried out at a flow rate of 25 μL/min in 1×HBS-EP+ buffer (GE Life Sciences; 10×Stock diluted before use). The sensor surfaces were activated for 7 min with a mixture of NHS (0.05 M) and EDC (0.2 M). The Anti-Flag M2 IgG was injected over all 4 flow cells at a concentration of 25 μg/mL in 10 mM sodium acetate, pH 4.5, for 7 min. Ethanolamine (1 M, pH 8.5) was injected for 7 min to block any remaining activated groups. An average of 12,000 response units (RU) of capture antibody was immobilized on each flow cell.
Off-rate and kinetic binding experiments were performed at 25° C. using 1×HBS-EP+buffer. Test and control antibodies were injected over the Anti-Flag surface at concentrations of 5-10 μg/mL for 12 seconds at a flow rate of 10 μL/min on flow cells 2, 3 and 4, followed by a buffer wash for 30 seconds at the same flow rate. Kinetic characterization of antibody samples was carried out with a single concentration of antigen (for off-rate ranking) or a dilution series of antigen (for kinetic characterization) and 1 injection of 0 nM antigen. After capturing ligand (antibody) on the anti-Flag surface, the analyte (human LAG3-Fc, R&D Systems #2319-L3; or cynomolgus LAG3-Fc, accession # NC 022282.1) was bound at 50, 25, 12.5, 6.25, and 0 nM for 180 seconds, followed by a 600 second dissociation phase at a flow rate of 50 μl/min Between each ligand capture and analyte binding cycle, regeneration was carried out using 2 injections of 10 mM glycine pH 2.0 for 30 seconds at 30 μL/min, followed by a 30 second buffer wash step.
The data were fit with the Biacore T200 Evaluation software, using a 1:1 Langmuir binding model. KD (affinity, nM) was determined as a ratio of the kinetic rate constants calculated from the fits of the association and dissociation phases.

Row | Kd [nM] | koff [s⁻¹] | kon [M⁻¹ s⁻¹] | Binder
16 | 21.3 | 0.0279 | 1.31e+06 | B1
17 | 15.2 | 0.0196 | 1.29e+06 | B2
18 | 18.9 | 0.0234 | 1.24e+06 | B3
19 | 2.46 | 0.0275 | 1.12e+07 | B8
20 | 2.27 | 0.122 | 5.35e+07 | B9
21 | 13.5 | 0.00422 | 312000 | B4
22 | 14.7 | 0.0152 | 1.04e+06 | B5
23 | 43.3 | 0.071 | 1.64e+06 | B6
24 | 863 | 0.0023 | 2670 | B7
